Experimental data from patent publication US20070202043A1 (ARIUS RESEARCH, published 2007).

Columns and labels:
[1] = target: T1, human TROP-2 on the surface of human cell lines (the AR52A301.5 antigen) (human, UniProt P09758 27-323); experiment: flow cytometry, 20 micrograms/mL antibody, MCF-7 breast cancer cells
T1 construct: whole, on cells; The cell lines are not transfected; also called IDAC 141205-03 antigen; TROP-2 antigenic moiety
T1 sequence (looked up): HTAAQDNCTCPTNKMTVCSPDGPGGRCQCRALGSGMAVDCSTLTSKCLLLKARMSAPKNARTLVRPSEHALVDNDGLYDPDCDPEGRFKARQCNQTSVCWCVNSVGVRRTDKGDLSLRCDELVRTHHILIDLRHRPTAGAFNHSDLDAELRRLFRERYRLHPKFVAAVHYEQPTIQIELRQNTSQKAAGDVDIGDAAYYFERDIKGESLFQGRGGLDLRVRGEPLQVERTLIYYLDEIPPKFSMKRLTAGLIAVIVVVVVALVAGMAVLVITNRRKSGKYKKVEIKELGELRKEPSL
Experimental: (§1) All cell lines, except for the majority of ovarian cancer cell lines, were obtained from the American Type Tissue Collection (ATCC, Manassas, Va.).
(§2) Cells were prepared for FACS by initially washing the cell monolayer with DPBS (without Ca⁺⁺ and Mg⁺⁺). Cell dissociation buffer (INVITROGEN, Burlington, ON) was then used to dislodge the cells from their cell culture plates at 37° C. After centrifugation and collection, the cells were resuspended in DPBS containing MgCl₂, CaCl₂ and 2 percent fetal bovine serum at 4° C. […] Flow cytometric acquisition of the cells was assessed by running samples on a FACSarray™ using the FACSarray™ System Software (BD Biosciences, Oakville, ON). The forward (FSC) and side scatter (SSC) of the cells were set by adjusting the voltage and amplitude gains on the FSC and SSC detectors.

[2] = target: T1, human TROP-2 on the surface of human …; experiment: flow cytometry, 20 micrograms/mL antibody, NCI-H520 lung cancer cells (weaker binding)
Experimental: as §1, §2

[3] = target: T1, human TROP-2 on the surface of human …; experiment: flow cytometry, 20 micrograms/mL antibody, PL45 pancreatic cancer cells
Experimental: as §1, §2

[4] = target: T1, human TROP-2 on the surface of human …; experiment: flow cytometry, 20 micrograms/mL antibody, OVCAR-3 ovarian cancer cells (printed twice in the paragraph, once as OVAR-3)
Experimental: as §1, §2

[5] = target: T1, human TROP-2 on the surface of human …; experiment: flow cytometry, 20 micrograms/mL antibody, MDA-MB-468 breast cancer cells
Experimental: as §2

[6] = target: T1, human TROP-2 on the surface of human …; experiment: cell-based or functional assay
[7] = target: T1, human TROP-2 on the surface of human …; experiment: flow cytometry, 20 micrograms/mL antibody, OVCA-429 ovarian cancer cells
Experimental: as §1, §2

[8] = target: T1, human TROP-2 on the surface of human …; experiment: flow cytometry, 20 micrograms/mL antibody, Hey ovarian cancer cells
Experimental: as §2

[9] = target: T1, human TROP-2 on the surface of human …; experiment: flow cytometry, 20 micrograms/mL antibody, Colo-205 colon cancer cells
Experimental: as §2

[10] = target: T1, human TROP-2 on the surface of human …; experiment: flow cytometry, 20 micrograms/mL antibody, HT-29 colon cancer cells
Experimental: as §2

[11] = target: T1, human TROP-2 on the surface of human …; experiment: flow cytometry, 20 micrograms/mL antibody, DU-145 prostate cancer cells
Experimental: as §2

[12] = target: T1, human TROP-2 on the surface of human …; experiment: flow cytometry, 20 micrograms/mL antibody, PC-3 prostate cancer cells
Experimental: as §1, §2

[13] = target: T1, human TROP-2 on the surface of human …; experiment: flow cytometry, 20 micrograms/mL antibody, DLD-1 colon cancer cells
Experimental: as §2

[14] = target: T1, human TROP-2 on the surface of human …; experiment: flow cytometry, 20 micrograms/mL antibody, FaDu head and neck cancer cells
Experimental: as §1, §2

[15] = target: T1, human TROP-2 on the surface of human …; experiment: flow cytometry, 20 micrograms/mL antibody, Hs888.Lu non-cancer lung cells (weaker binding)
Experimental: as §2

[16] = target: T1, human TROP-2 on the surface of human …; experiment: flow cytometry, 20 micrograms/mL antibody, OCC-1 ovarian cancer cells
Experimental: as §1, §2

[17] = target: T1, human TROP-2 on the surface of human …; experiment: flow cytometry, 20 micrograms/mL antibody, C-13 ovarian cancer cells
Experimental: as §2

[18] = target: T1, human TROP-2 on the surface of human …; experiment: flow cytometry, 20 micrograms/mL antibody, BxPC-3 pancreatic cancer cells
Experimental: as §2

[19] = target: T1, human TROP-2 on the surface of human …; experiment: flow cytometry, 20 micrograms/mL antibody, T.Tn esophageal cancer cells
Experimental: as §2

[20] = target: T1, human TROP-2 on the surface of human …; experiment: flow cytometry, 20 micrograms/mL antibody, OV2008 ovarian cancer cells
Experimental: as §1, §2

B1: AR52A301.5 monoclonal antibody (hybridoma IDAC 141205-03) (antibody, mouse IgG1, V domains shown)
VH: EVQLQQSGPELVKPGASVKISCKASGYTFTDYNMHWVKQSHGKSLEWIGYIYPYNGGTGYNQRFKNKATLTVDISSSTAYMELRSLTSEDSAVYYCAREEDYYGFDYWGQGTTLTVSS
VL: DVVMTQTPLSLPVSLGQDASISCRSSQSLVHSYGNTYLHWYLQKPGQSPKLLIYKVSNRFSGVPDRFSGSGSGTDFTLKISRVEAEDMGVYFCSQSTHVYTFGGGTKLEIK
notes: Murine IgG1, kappa from the hybridoma; also called IDAC 141205-03 antibody
mean fluorescence intensity fold increase above isotype control [1]: 16 fold | mean fluorescence intensity fold increase above isotype control [2]: 2.1 fold | mean fluorescence intensity fold increase above isotype control [3]: 12.9 fold | mean fluorescence intensity fold increase above isotype control [4]: 22.1 fold | mean fluorescence intensity fold increase above isotype control [5]: 22.7 fold | cytotoxicity on OVCAR-3 cells relative to the positive control cycloheximide [6]: 53 percent | mean fluorescence intensity fold increase above isotype control [7]: 3.4 fold | mean fluorescence intensity fold increase above isotype control [8]: 5.9 fold | mean fluorescence intensity fold increase above isotype control [9]: 38.6 fold | mean fluorescence intensity fold increase above isotype control [10]: 6.7 fold | mean fluorescence intensity fold increase above isotype control [11]: 3.9 fold | mean fluorescence intensity fold increase above isotype control [12]: 5 fold | mean fluorescence intensity fold increase above isotype control [13]: 82.8 fold | mean fluorescence intensity fold increase above isotype control [14]: 59.8 fold | mean fluorescence intensity fold increase above isotype control [15]: 2.6 fold | mean fluorescence intensity fold increase above isotype control [16]: 17.8 fold | mean fluorescence intensity fold increase above isotype control [17]: 38.7 fold | mean fluorescence intensity fold increase above isotype control [18]: 29.4 fold | mean fluorescence intensity fold increase above isotype control [19]: 18.6 fold | mean fluorescence intensity fold increase above isotype control [20]: 32.7 fold
